Data on one protein can be found in publication PMC2532728 (Nucleic Acids Research, 2008).

This data set concerns the molecule itself. The experiment in a line: SEC.

B1: recombinant ZmWHY1 (full-length mature ZmWHY1, lacking the transit peptide) (natural protein)
chain: ASSRKAAAVPACPVASPRHSDYFDPRAPPPPRGDGGYGRPPNGAQDGRVFTSYSIYKGKAALSFDPRPPLFVPLDSGAYKVAKEGFVLLQFAPAVATRQYDWTRKQVFSLSVWEIGTLLTLGPTDSCEFFHDPFKGRSEEGKVRKVLKIEPTPDGNGRFFNLSVQNRLINVDESIYIPITKGEFAVIVSTFNYIIPHLMGWSTFVSSIKPEESRPYSRPQSTSEYEWRR
For orientation: stoichiometry N means a count of units in the complex or per binding partner. For B1, the “stoichiometry N” value worked out at 4.
